B1: rIL-6: Recombinant mouse IL-6 protein (Catalog 406-ML/CF, R&D Systems), used for mouse AEC2s and in mice (protein, UniProt P08505 25-211, looked up)
Interleukin-6: FPTSQVRRGDFTEDTTPNRPVYTTSQVGGLITHVLWEIVEMRKELCNGNSDCMNNDDALAENNLKLPEIQRNDGCYQTGYNQEICLLKISSGLLEYHSYLEYMKNNLKDNKKDKARVLQRDTETLIHIFNQEVKDLHKIVLPTPISNALLTDKLESQKEWLRTKTIQFILKSLEEFLKVTLRSTRQT

Legend:
[1] = system: CD24^−Sca-1^−AEC2s; experiment: 3D Matrigel organoid culture, colony-forming efficiency (CFE) of mouse AEC2s; assay type: cell-based
Protocol: Flow-sorted mouse CD24^−Sca-1^−AEC2s or human HTII-280^+AEC2s were cultured in Matrigel/medium (1:1) mixture in the presence of MLg2908 lung fibroblast cells (Barkauskas et al., 2013; Chen et al., 2012). 100 μl Matrigel/medium mix containing 3×10^3 type 2 cells and 2×10^5 MLg2908 cells were plated into each 0.4-μm Transwell insert of a 24-well plate. 400 μl of medium was added in the lower chambers. Medium was described previously (Chen et al., 2012). Matrigel was from BD Biosciences (catalog 354230). Fresh medium was changed every other day. Cultures were maintained in a humidified 37° C. and 5% CO2 incubator. Colonies were visualized with a Zeiss Axiovert40 inverted fluorescent microscope (Carl Zeiss AG, Oberkochen, Germany). The number of colonies with a diameter of ≥50 μm from each insert was counted, and the colony-forming efficiency (CFE) was determined by the number of colonies in each culture as a percentage of the number of input epithelial cells at day 12 after plating.
For culture with IL-6 protein or anti-IL-6, sorted type 2 cells were pretreated with IL-6 protein or anti-IL-6 at room temperature for 30 minutes. Type 2 cells were then mixed with fibroblasts in the Matrigel/medium mixture and plated into Transwell inserts. The same concentration of IL-6 protein or IL-6 antibody was added into the Matrigel/medium mix and into the medium placed in the lower chambers.
Healon GV was purchased from Abbott Medical Optics (Abbot Park, Ill.). Pep-1 was synthesized by Sigma-Genosys and dissolved in DMSO to form a 100 μg/μl stock solution as described previously (Jiang et al., 2005; Mummert et al., 2000). For 3D matrigel culture, sorted type 2 cells were pretreated with Healon (200 μg/ml) or pep-1 (125 μg/ml) at room temperature for 30 minutes. Higher concentrations of Healon (400 μg/ml, 600 μg/ml, and 800 μg/ml) were used for 3D matrigel culture of IPF AEC2s. Cells were then mixed with fibroblasts in Matrigel/medium mix and plated into Transwell inserts. The same concentrations of Healon or Pep-1 were added into the Matrigel/medium mix and medium that were placed in the lower chambers.
The cell-permeable STAT3 inhibitor S3I-201 was purchased from Santa Cruz Biotechnology (Dallas, Tex.) and dissolved in DMSO to form stock solution of 10 mg/ml (MW 365.36). The dose for treating type 2 cells in colony-formation assays was 50 μM and 100 μM. The same amounts of DMSO were added into the control wells. Flow-sorted type 2 cells were pretreated with the STAT3 inhibitor at 50 μM or 100 μM concentrations, and with IL-6 protein (100 ng/ml), at room temperature for 30 minutes. Cells were then mixed with fibroblasts in Matrigel/medium mix and plated into Transwell inserts. […]

[2] = system: human HTII-280^+AEC2s; experiment: 3D matrigel culture, colony-forming efficiency (CFE) of human AEC2s; assay type: cell-based; conditions: AEC2s sorted from diseased (IPF) lung; rIL-6 200 ng/ml vs medium without exogenous IL-6; FIG. 13H
Protocol: (§1) Recombinant mouse IL-6 protein (Catalog 406-ML/CF, R&D Systems) was supplied in 50 mM sodium acetate and 1 mM EDTA and was diluted (1:5 or more depending on the stock concentration) in sterile PBS, and 2 μg per mouse in 50 μl was injected intramuscularly at 1 day before and at 1 day and 3 days after bleomycin instillation. Control buffer was made of the same volume of 50 mM sodium acetate and 1 mM EDTA solution and PBS. Mouse anti-IL-6 (MAB406, Clone #MP5-20F3, R&D Systems) or control IgG was reconstituted with sterile PBS. 250 μg per mouse in 250 μl sterile PBS was injected intraperitoneally to mice at 1 day before and at 1 day and 3 days after bleomycin instillation. Recombinant human IL-6 protein (Catalog 206-IL-010, R&D Systems) was reconstituted with sterile PBS containing 0.1% BSA. 200 ng/ml was used for organoid culture of human AEC2s.
Single-cell suspensions from human lungs were isolated as described (Barkauskas et al., 2013). The procedures of staining the cells for flow cytometry and data analysis were described previously (Barkauskas et al., 2013; Liang et al., 2012). […] Flow cytometry was performed using a FACSCanto II flow cytometer and FACSAria III sorter (BD Immunocytometry Systems, San Jose, Calif.) and analyzed using Flow Jo 9.6.4 software (Tree Star, Ashland, Oreg.). […]

[3] = system: bleomycin-induced lung injury; experiment: Bleomycin lung injury model with rIL-6 or anti-IL-6 administration; assay type: in vivo, mouse
Description: Mice. Tlr4^−/− and Tlr2^−/− mice were obtained (Takeuchi et al., 1999; Kawai et al., 1999), Has2^flox/+ mice were generated using the Cre-loxP system (Li et al., 2011; Matsumoto et al., 2009), and SFTPC-Cre mice, SFTPC-CreER mice, SFTPC-GFP mice, and Rosa-Tomato^flox/flox mice were generated (Barkauskas et al., 2013; Chen et al., 2012; Eblaghie et al., 2006). All mice were backcrossed on the C57Bl/6J background for more than six generations. […] Has2^flox/flox homozygous mice were crossed with SFTPC-Cre^+ mice to generate SFTPC-Cre^+;Has2^flox/flox mice. Rosa-Tomato^flox/flox mice were crossed with SFTPC-CreER mice to generate SFTPC-CreER^+;Rosa-Tomato^flox/flox mice. Animals were randomly assigned to treatment groups, and they were age- and sex-matched. 8- to 12-week-old mice of both sexes (male:female ratio ˜1:1) were used in the bleomycin lung injury model. Animals for experiments were selected by genotype, and no blinding was performed.
Bleomycin instillation and BAL procedures were described previously (Dong et al., 2015; Lovgren et al., 2011). Under anesthesia, the trachea was surgically exposed. 1.25-5 U/kg bleomycin (Hospira, Lake Forest, Ill.) in 25 μl PBS was instilled into the mouse trachea with a 25-G needle inserted between the cartilaginous rings of the trachea. Control animals received saline alone. The tracheostomy site was sutured, and the animals were allowed to recover. Mice were euthanized at different time points, and lung tissue and BAL fluid were collected for experiments. 0.8-ml aliquots of PBS were used for lavage. Cell-free BAL fluid was stored in a −80° C. freezer for cytokine measurement.
Collagen contents in mouse lungs were measured using a conventional hydroxyproline method (Jiang et al., 2004). Lung tissues were vacuum-dried and hydrolyzed with 6 N hydrochloride acid at 120° C. overnight. Hydroxyproline content was expressed as ‘μg per lung’, unless specified otherwise. The ability of the assay to completely hydrolyze and recover hydroxyproline from collagen was confirmed using samples containing known amounts of purified collagen.
as §1
Single-cell suspensions from mouse lungs were isolated as described (Chen et al., 2012). Mouse lungs were perfused with 5 ml PBS and digested with elastase (4 U/ml; Worthington Biochemical Corporation) and DNase I (100 U/ml; Sigma) to obtain single-cell suspensions for flow cytometry. Primary antibodies to CD31, CD34, CD45, Sca-1, and CD24, and secondary antibody anti-streptavidin were all from eBioscience (San Diego, Calif.). Mouse anti-EpCAM (G8.8, catalog 118215) and anti-Ki67 (catalog 652403) were from BioLegend (San Diego, Calif.). 7-AAD was from BD Biosciences (San Diego, Calif.).
The procedures of staining the cells for flow cytometry and data analysis were described previously (Chen et al., 2012; Liang et al., 2012). In brief, cells were resuspended in Hank's balanced saline solution supplemented with 2% FBS (FBS), 10 mM HEPES, 0.1 mM EDTA, 100 IU/ml penicillin, 100 μg/ml streptomycin (HBSS+ buffer). […]

[4] = bleomycin-treated Tlr4^−/− mice, rIL-6 vs control buffer, FIG. 10G

| Molecule | rIL6-promoted colony formation of CD24^−Sca-1^−AEC2s ([1]; STAT3 inhibitor 50 μM or 100 μM with IL-6 protein 100 ng/ml, FIG. 11C) | CFEs of CD24^−Sca-1^−AEC2s ([1]; AEC2s from bleomycin-treated SFTPC-Cre;Has2^flox/flox mice, rIL-6 100 ng/ml, FIG. 10F) | CFEs of CD24^−Sca-1^−AEC2s ([1]; AEC2s from bleomycin-treated Tlr4^−/− mice, rIL-6 100 ng/ml, FIG. 10E) | CFEs of CD24^−Sca-1^−AEC2s ([1]; AEC2s from bleomycin-treated WT mice, dose-dependent, vs control IgG or medium, FIGS. 10C-D) | CFEs of HTII-280^+AEC2s [2] | hydroxyproline content in the lungs ([3]; Tlr4^−/− mice, bleomycin and rIL-6 vs bleomycin alone, FIG. 10H) | AEC2 apoptosis ([3]; bleomycin day 7 Tlr4^−/− mice, rIL-6 vs buffer, FIG. 11D) | inflammatory cell infiltration (BAL cell counts) ([3]; bleomycin day 7 Tlr4^−/− mice, rIL-6 vs buffer, FIG. 11E) | hydroxyproline content in the lungs ([3]; bleomycin-injured SFTPC-Cre;Has2^flox/flox mice, rIL-6 vs buffer, FIG. 10I) | survival ([3]; bleomycin-injured Tlr4^−/− mice, rIL-6 vs buffer, 21 days, FIG. 11F) | survival / mortality ([3]; bleomycin-injured WT mice, anti-IL-6 250 μg per mouse i.p. vs control IgG (FIG. 11G), rIL-6 vs bleomycin alone (data not shown)) | hydroxyproline levels ([3]; bleomycin-injured WT mice, anti-IL-6 vs control IgG, rIL-6 vs bleomycin alone, data not shown) | recovery of CD24^−Sca-1^−AEC2s ([3]; bleomycin-treated Tlr4^−/− mice, rIL-6 2 μg per mouse i.m. day −1, 1, 3, vs control buffer, FIG. 10G) | Ki67 staining of CD24^−Sca-1^−AEC2s [3, 4] | concentration of total BALF proteins [3, 4] |
| --- | --- | --- | --- | --- | --- | --- | --- | --- | --- | --- | --- | --- | --- | --- | --- |
| Cc1ccc(S(=O)(=O)OCC(=O)Nc2ccc(C(=O)O)c(O)c2)cc1 [S3I-201, reference compound] | abolished |  |  |  |  |  |  |  |  |  |  |  |  |  |  |
| B1 |  | promoted | promoted | increased | markedly increased | lower | did not affect | did not affect | lower hydroxyproline content | increased survival | did not alter | did not alter | more recovery | greater Ki67 staining | lower concentration |

From patent US10973882B2, “Methods for reducing severity of pulmonary fibrosis” (CEDARS-SINAI MEDICAL CENTER, priority 2017, dated 2021)
